B1: Flag-tagged WT STAT5 (mouse STAT5a) [mouse] / DUSP4-PD (phosphatase-dead mutant DUSP4, [mouse] (parent)
chain 1: MAGWIQAQQLQGDALRQMQVLYGQHFPIEVRHYLAQWIESQPWDAIDLDNPQDRGQATQLLEGLVQELQKKAEHQVGEDGFLLKIKLGHYATQLQNTYDRCPMELVRCIRHILYNEQRLVREANNCSSPAGVLVDAMSQKHLQINQRFEELRLITQDTENELKKLQQTQEYFIIQYQESLRIQAQFAQLGQLNPQERMSRETALQQKQVSLETWLQREAQTLQQYRVELAEKHQKTLQLLRKQQTIILDDELIQWKRRQQLAGNGGPPEGSLDVLQSWCEKLAEIIWQNRQQIRRAEHLCQQLPIPGPVEEMLAEVNATITDIISALVTSTFIIEKQPPQVLKTQTKFAATVRLLVGGKLNVHMNPPQVKATIISEQQAKSLLKNENTRNECSGEILNNCCVMEYHQATGTLSAHFRNMSLKRIKRADRRGAESVTEEKFTVLFESQFSVGSNELVFQVKTLSLPVVVIVHGSQDHNATATVLWDNAFAEPGRVPFAVPDKVLWPQLCEALNMKFKAEVQSNRGLTKENLVFLAQKLFNISSNHLEDYNSMSVSWSQFNRENLPGWNYTFWQWFDGVMEVLKKHHKPHWNDGAILGFVNKQQAHDLLINKPDGTFLLRFSDSEIGGITIAWKFDSPDRNLWNLKPFTTRDFSIRSLADRLGDLNYLIYVFPDRPKDEVFAKYYTPVLAKAVDGYVKPQIKQVVPEFVNASTDAGASATYMDQAPSPVVCPQPHYNMYPPNPDPVLDQDGEFDLDESMDVARHVEELLRRPMDSLDARLSPPAGLFTSARSSLS
chain 2: MVTMEELREMDCSVLKRLMNRDENGGGGSAGGNGSGSHGALGLLSGGKCLLLDCRPFLAHSAGYIRGSVNVRCNTIVRRRAKGSVSLEQILPAEEEVRARLRSGLYSAVIVYDERSPRAESLREDSTVSLVVQALRRNAERTDICLLKGGYERFSSEYPEFCSKTKALAAIPPPVPPSTNESLDLGCSSCGTPLHDQGGPVEILPFLYLGSAYHAARRDMLDALGITALLNVSSDCPNHFEGHYQYKCIPVEDNHKADISSWFMEAIEYIDAVKDCRGRVLVHSQAGISRSATICLAYLMMKKRVRLEEAFEFVKQRRSIISPNFSFMGQLLQFESQVLTTSCAAEAASPSGPLRERGKATPTPTSQFVFSFPVSVGVHAAPSNLPYLHSPITTSPSC

Variants of B1 are the subject of this assay. Description: co-IP (anti-Flag IP, IB DUSP4) with band intensity quantification. As to conditions: HEK-293T cells co-transfected for 24 hr, parent: 3.76e+04.
As to chain 1 Y694F, the response (band intensity (arbitrary units)) was 43700.
For chain 1 Y694D, the response (band intensity (arbitrary units)) is 48300.
Next, chain 1 Y694E: 44800.
